Here are results for 2 molecules from PMC9203054, “Dynamics of allosteric regulation of the phospholipase C-γ isozymes upon recruitment to membranes” (eLife, 2022).

Assay [1] has as its target PLC-γ1 pTyr783 peptide peptide encompassing pTyr783 (Homo sapiens) (UniProt P19174). As to conditions: cited from earlier work.
Assay [2] has as its target T1, PLC-γ1 (H335A+D1165H), rat phospholipase C-γ1 residues 21–1215 (rat, UniProt P10686 21-1215, H335A | D1165H).
T1 construct: phospholipase C-γ1, rat, residues 21–1215, with H335A and D1165H; PDB 6PBC is the cited structure of the parent; also called oncogenic mutant of PLC-γ1; source: High Five (Trichoplusia ni) cells, baculovirus, purified (HisTrap IMAC, TEV cleavage, SourceQ, Superdex 200); not shown: His6, N-terminal, cleaved
T1 sequence (looked up): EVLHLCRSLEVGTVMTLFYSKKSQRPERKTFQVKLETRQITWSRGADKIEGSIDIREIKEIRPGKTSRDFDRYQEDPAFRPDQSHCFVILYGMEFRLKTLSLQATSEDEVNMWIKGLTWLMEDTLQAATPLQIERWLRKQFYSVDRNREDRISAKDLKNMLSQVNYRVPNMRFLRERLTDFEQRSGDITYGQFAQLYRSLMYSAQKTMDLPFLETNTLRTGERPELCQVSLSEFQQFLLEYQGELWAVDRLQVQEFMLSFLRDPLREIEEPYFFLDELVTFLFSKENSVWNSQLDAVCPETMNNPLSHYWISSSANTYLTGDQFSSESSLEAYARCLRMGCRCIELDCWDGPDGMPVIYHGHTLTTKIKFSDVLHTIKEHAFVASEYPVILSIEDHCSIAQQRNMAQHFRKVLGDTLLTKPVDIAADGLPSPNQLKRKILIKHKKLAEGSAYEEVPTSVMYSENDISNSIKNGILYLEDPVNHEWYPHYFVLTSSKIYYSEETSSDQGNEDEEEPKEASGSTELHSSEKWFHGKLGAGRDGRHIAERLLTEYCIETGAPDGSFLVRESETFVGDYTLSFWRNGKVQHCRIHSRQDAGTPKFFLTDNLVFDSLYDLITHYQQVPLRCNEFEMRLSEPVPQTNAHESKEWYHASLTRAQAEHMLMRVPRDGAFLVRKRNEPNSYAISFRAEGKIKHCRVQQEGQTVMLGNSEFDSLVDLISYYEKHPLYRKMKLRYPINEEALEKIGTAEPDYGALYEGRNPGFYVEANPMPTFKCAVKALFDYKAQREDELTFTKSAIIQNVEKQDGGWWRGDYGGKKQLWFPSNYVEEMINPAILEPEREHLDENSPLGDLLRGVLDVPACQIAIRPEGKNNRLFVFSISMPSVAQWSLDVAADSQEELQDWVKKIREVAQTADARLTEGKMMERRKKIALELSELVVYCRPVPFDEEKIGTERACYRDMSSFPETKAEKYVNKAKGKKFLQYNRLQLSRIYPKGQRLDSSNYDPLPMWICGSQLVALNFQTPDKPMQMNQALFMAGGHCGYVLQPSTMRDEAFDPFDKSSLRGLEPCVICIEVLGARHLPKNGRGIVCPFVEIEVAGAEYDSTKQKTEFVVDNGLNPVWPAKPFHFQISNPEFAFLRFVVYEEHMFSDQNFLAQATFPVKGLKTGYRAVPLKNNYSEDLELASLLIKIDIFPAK
The experiment in a line: SEC; PLC-γ1 variant mixed with phosphorylated kinase-inactive FGFR1K (two-fold molar excess of one partner), Superdex 200 GL 10 mm x 300 mm, 20 mM HEPES pH 7.5, 100 mM NaCl, 10 mM MgCl2, 2 mM DTT; fractions by SDS-PAGE and Coomassie; complex of PLC-γ1 (H335A) run again after 8 hr on ice. As to conditions: both partners purified. (In general: Size exclusion chromatography separates by hydrodynamic size, large species first.)

The target of assay [3] is T2, PLC-γ1 (H335A), rat phospholipase C-γ1 residues 21–1215 (rat, UniProt P10686 21-1215, H335A).
T2 construct: phospholipase C-γ1, rat, residues 21–1215, with H335A; source: High Five (Trichoplusia ni) cells, baculovirus, purified (HisTrap IMAC, TEV cleavage, SourceQ, Superdex 200); not shown: His6, N-terminal, cleaved
T2 sequence (looked up): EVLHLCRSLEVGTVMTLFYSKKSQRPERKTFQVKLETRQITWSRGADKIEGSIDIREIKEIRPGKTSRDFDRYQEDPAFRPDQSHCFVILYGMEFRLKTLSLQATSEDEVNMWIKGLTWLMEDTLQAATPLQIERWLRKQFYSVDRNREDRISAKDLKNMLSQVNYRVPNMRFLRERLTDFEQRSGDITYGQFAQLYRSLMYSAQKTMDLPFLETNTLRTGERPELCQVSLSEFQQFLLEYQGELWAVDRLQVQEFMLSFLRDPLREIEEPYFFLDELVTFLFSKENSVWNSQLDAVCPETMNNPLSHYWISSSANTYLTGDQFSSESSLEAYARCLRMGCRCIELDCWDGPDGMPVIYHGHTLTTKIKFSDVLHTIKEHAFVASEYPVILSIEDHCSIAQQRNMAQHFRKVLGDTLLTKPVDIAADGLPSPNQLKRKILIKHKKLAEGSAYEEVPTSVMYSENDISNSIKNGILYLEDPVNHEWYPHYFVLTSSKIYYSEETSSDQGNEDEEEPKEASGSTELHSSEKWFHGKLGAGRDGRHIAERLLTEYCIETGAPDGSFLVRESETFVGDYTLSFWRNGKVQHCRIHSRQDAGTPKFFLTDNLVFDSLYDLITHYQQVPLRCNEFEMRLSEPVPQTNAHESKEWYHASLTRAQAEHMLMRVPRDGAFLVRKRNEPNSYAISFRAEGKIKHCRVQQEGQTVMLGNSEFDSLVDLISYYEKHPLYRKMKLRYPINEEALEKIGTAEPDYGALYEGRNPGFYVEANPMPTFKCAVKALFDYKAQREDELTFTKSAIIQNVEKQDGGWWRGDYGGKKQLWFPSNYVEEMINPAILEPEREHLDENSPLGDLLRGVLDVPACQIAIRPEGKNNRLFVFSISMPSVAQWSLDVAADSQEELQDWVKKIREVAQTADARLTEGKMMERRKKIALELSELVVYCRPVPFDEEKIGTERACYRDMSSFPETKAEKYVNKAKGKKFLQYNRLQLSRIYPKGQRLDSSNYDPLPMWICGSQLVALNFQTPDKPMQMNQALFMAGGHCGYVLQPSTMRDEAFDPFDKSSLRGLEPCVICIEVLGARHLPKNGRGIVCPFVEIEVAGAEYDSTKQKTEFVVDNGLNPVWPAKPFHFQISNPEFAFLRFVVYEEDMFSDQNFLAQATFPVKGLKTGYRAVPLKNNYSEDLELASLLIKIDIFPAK
Described as above. As to conditions: both partners purified.

Assay [4] addresses T3, PLC-γ1 (D1165H), rat phospholipase C-γ1 residues 21–1215 (rat, UniProt P10686 21-1215, D1165H).
T3 sequence (looked up): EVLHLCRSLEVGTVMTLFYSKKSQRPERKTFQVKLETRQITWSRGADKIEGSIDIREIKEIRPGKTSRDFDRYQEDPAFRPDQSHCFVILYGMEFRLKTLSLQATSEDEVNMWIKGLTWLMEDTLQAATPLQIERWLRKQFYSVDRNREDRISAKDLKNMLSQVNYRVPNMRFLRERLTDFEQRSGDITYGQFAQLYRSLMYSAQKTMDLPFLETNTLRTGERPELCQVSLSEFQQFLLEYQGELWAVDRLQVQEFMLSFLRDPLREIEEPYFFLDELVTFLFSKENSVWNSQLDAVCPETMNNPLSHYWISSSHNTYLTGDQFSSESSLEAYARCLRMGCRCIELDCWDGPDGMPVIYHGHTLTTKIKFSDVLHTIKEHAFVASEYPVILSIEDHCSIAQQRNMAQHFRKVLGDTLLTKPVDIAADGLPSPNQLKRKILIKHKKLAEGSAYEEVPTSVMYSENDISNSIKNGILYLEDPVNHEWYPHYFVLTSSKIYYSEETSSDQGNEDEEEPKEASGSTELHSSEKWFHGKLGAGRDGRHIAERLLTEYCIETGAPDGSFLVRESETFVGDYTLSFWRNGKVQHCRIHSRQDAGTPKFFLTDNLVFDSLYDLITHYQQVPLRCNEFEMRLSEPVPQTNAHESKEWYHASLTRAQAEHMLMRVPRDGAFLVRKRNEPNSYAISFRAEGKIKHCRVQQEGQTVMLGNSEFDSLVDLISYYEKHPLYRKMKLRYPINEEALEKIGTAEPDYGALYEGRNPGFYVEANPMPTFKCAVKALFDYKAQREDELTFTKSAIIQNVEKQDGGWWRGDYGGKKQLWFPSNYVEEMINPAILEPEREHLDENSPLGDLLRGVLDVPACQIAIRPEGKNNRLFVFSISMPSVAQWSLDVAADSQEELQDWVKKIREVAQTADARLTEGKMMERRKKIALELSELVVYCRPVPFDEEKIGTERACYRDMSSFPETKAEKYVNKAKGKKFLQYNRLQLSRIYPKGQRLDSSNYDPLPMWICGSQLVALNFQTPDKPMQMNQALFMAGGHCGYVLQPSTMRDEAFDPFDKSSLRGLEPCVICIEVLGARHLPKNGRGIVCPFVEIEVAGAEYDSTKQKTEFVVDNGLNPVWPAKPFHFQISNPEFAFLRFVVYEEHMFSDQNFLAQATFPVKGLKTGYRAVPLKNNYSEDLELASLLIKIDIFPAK
The experiment in a line: cell-based or functional assay.

For assay [5], the target named is T4, wild-type PLC-γ1, rat phospholipase C-γ1 residues 21–1215 (rat, UniProt P10686 21-1215).
T4 sequence (looked up): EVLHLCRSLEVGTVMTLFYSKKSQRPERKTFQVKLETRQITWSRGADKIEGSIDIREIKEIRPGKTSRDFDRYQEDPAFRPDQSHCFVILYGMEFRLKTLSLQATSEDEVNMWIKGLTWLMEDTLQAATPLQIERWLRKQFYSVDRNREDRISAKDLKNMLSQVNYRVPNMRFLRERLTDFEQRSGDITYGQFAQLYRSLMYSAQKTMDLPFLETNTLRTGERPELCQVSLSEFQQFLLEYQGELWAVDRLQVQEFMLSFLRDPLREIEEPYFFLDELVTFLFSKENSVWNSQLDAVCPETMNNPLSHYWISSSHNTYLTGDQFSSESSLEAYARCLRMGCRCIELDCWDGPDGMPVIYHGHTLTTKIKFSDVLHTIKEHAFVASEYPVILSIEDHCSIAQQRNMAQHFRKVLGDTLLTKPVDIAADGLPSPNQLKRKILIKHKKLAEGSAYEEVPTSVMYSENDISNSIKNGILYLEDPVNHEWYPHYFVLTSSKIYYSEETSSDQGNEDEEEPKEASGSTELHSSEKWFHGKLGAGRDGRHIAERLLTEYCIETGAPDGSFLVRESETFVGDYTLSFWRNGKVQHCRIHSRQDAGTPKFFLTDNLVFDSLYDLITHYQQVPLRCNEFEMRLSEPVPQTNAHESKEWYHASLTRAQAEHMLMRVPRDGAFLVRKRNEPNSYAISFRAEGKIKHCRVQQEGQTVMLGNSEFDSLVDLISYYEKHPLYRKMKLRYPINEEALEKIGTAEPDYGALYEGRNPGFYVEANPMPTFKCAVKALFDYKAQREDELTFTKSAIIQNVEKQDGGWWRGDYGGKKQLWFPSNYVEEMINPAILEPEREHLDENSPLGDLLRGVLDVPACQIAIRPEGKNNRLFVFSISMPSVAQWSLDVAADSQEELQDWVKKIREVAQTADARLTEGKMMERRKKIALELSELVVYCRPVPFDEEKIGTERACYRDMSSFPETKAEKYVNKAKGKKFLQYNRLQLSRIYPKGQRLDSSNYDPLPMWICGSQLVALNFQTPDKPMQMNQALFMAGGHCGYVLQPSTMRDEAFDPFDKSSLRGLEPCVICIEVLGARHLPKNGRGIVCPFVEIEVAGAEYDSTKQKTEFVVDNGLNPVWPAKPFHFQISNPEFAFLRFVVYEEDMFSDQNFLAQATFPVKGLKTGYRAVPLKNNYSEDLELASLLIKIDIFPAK
The experiment in a line: cell-based or functional assay.

By Kd is commonly meant the constant that tells how readily two partners part at equilibrium.

As for “PLC-γ1 cSH2 domain cSH2 (from UniProt P19174)”, the Kd in assay [1] was 360 nM.

B1: kinase-inactive kinase domain of human FGFR1 (residues 458–774) phosphorylated at Tyr766 (domain or fragment, UniProt P11362 458-774, looked up)
chain: AGVSEFELPEDPRWELPRDRLVLGKPLGEGCFGQVVLAEAIGLDKDKPNRVTKVAVKMLKSDATEKDLSDLISEMEMMKMIGKHKNIINLLGACTQDGPLYVIVEYASKGNLREYLQARRPPGLEFCFNPSHNPEEQLSSKDLVSCAYQVARGMEYLASKKCIHRDLAARNVLVTEDNVMKIADFGLARDIHHIDFFKKTTNGRLPVKWMAPEALFDRIYTHQSDVWSFGVLLWEIFTLGGSPYPGVPVEELFKLLKEGHRMDKPSNCTNELFMMMRDCWHAVPSQRPTFKQLVEDLDRIVALTSNQEYLDLSMPLD
modifications: phosphotyrosine at 766
notes: fibroblast growth factor receptor 1, human, kinase domain residues 458–774, six tyrosines changed to phenylalanine; Phosphorylation specifically at Tyr766 confirmed by LC-MS/MS; also called pFGFR1K; phosphorylated FGFR1K; source: High Five cells, baculovirus, purified (HisTrap IMAC, TEV cleavage, Superdex 200); phosphorylated in vitro with His6-tagged kinase-active FGFR1K (Y766F), separated by …
As for B1, the binding result in assay [2] and in assay [3] was “binds” throughout. For the same molecule, the “basal lipase activity of PLC-γ1 (D1165H) (0.3 nM) on XY-69 in PE:PIP2 (80:20) liposomes with a two-fold molar excess of pFGFR1K, against PLC-γ1 (D1165H) alone” value in assay [4] was approximately 2 fold. The “specific lipase activity of PLC-γ1 (10 nM) on XY-69 in PE:PIP2 (80:20) liposomes, pre-incubated with a two-fold molar excess of pFGFR1K, against PLC-γ1 alone” value in assay [5] is approximately 3 fold.
